Consider 52 molecules from US20150337019A1 (MANUKAMED HOLDINGS LIMITED PARTNERSHIP, published 2015).

The first experiment has as its target T1, Cathepsin B from bovine spleen (bovine, UniProt P07688 80-332). The experiment in a line: cell-based or functional assay.
Consider H-YINR-OH [H-YINR-OH], for which the “Cathepsin B inhibition test, 2 mM peptide” value (“Cathepsin B inhibition test” below) stood at 142.
Still for that read-out and setting: the value for H-IFVTMLR-OH [H-IFVTMLR-OH] was 80.5.
Consider Ac-YINR-OH [Ac-YINR-OH], for which the “Cathepsin B inhibition test” value amounted to 93.1.
As to H-Phe-Asp-Arg-OH (also: MGO-modified, site not given here) [MGO-modified H-FDR-OH], the “Cathepsin B inhibition test” value was determined as 71.2.
Same read-out and setting: next, H-Phe-Asp-Arg-OH [H-FDR-OH]: 175; H-Phe-Thr-Lys-OH [H-FTK-OH]: 148; Ac-HNIR-OH [Ac-HNIR-OH]: 172.
The same measure, in the same setting: next, Ac-HNIR-OH (also: MGO-modified, site not given here) [MGO-modified Ac-HNIR-OH]: 107; H-YINR-OH (also: MGO-modified, site not given here) [MGO-modified H-YINR-OH]: 79.2; Ac-Phe-Thr-Lys-OH (also: MGO-modified, site not given here) [MGO-modified Ac-FTK-OH]: 105.
Same read-out and setting: next, H-HNIR-OH [H-HNIR-OH]: 152; Ac-Phe-Asp-Arg-OH (also: MGO-modified, site not given here) [MGO-modified Ac-FDR-OH]: 44.8.
For H-Phe-Thr-Lys-OH (also: MGO-modified, site not given here) [MGO-modified H-FTK-OH], the “Cathepsin B inhibition test” value came to 76.6.
The same measure, in the same setting: the value for Ac-Phe-Thr-Lys-OH [Ac-FTK-OH] was 149; that for H-HNIR-OH (also: MGO-modified, site not given here) [MGO-modified H-HNIR-OH] was 103.
Same read-out and setting: next, Ac-Phe-Asp-Arg-OH [Ac-FDR-OH]: 85.6.
Consider Ac-YINR-OH (also: MGO-modified, site not given here) [MGO-modified Ac-YINR-OH], for which the “Cathepsin B inhibition test” value came out at 99.

The next experiment concerns the target T1, Cathepsin B from bovine spleen. The experiment in a line: cell-based or functional assay. The source holds these as a separate data set.
With Ac-Met-Asp-Lys-OH [Ac-MDK-OH], the “Cathepsin B inhibition test” value was 110.
Regarding Ac-Met-Asp-Arg-OH (also: MGO-modified, site not given here) [MGO-modified Ac-MDR-OH], the “Cathepsin B inhibition test” value is 88.6.
With H-Met-His-Arg-OH (also: MGO-modified, site not given here) [MGO-modified H-MHR-OH], the “Cathepsin B inhibition test” value worked out at 80.7.
On the same count and under the same terms, next, H-Met-His-Arg-OH [H-MHR-OH]: 96.8.
Same read-out and setting: the value for Ac-Met-His-Arg-OH [Ac-MHR-OH] was 101.
The same measure, in the same setting: the value for Ac-Leu-Gln-Lys-OH [Ac-LQK-OH] was 102; that for H-Thr-Asn-Arg-OH (also: MGO-modified, site not given here) [MGO-modified H-TNR-OH] was 91.9; that for H-Met-Asp-Arg-OH [H-MDR-OH] was 102.
Regarding H-Thr-Asp-Lys-OH [H-TDK-OH], the “Cathepsin B inhibition test” value was found to be 103.
As for Ac-Met-Asp-Arg-OH [Ac-MDR-OH], the “Cathepsin B inhibition test” value was found to be 107.
Consider Ac-Met-His-Arg-OH (also: MGO-modified, site not given here) [MGO-modified Ac-MHR-OH], for which the “Cathepsin B inhibition test” value is 90.1.
Turning to Ac-Leu-Gln-Lys-OH (also: MGO-modified, site not given here) [MGO-modified Ac-LQK-OH], the “Cathepsin B inhibition test” value was 90.2.
Same read-out and setting: the value for Ac-Thr-Asn-Arg-OH (also: MGO-modified, site not given here) [MGO-modified Ac-TNR-OH] was 91.7; that for Ac-Thr-Asp-Lys-OH (also: MGO-modified, site not given here) [MGO-modified Ac-TDK-OH] was 92.8.
As for Ac-Thr-Asn-Arg-OH [Ac-TNR-OH], the “Cathepsin B inhibition test” value was found to be 96.5.
In the case of H-Met-Asp-Lys-OH (also: MGO-modified, site not given here) [MGO-modified H-MDK-OH], the “Cathepsin B inhibition test” value was found to be 70.6.
As for H-Leu-Gln-Lys-OH (also: MGO-modified, site not given here) [MGO-modified H-LQK-OH], the “Cathepsin B inhibition test” value came out at 95.3.
The same measure, in the same setting: next, H-Ile-Asp-Arg-OH [H-IDR-OH]: 98; H-Val-Asn-Arg-OH (also: MGO-modified, site not given here) [MGO-modified H-VNR-OH]: 82.6.
The same measure, in the same setting: the value for Ac-Val-Asn-Arg-OH (also: MGO-modified, site not given here) [MGO-modified Ac-VNR-OH] was 68.5; that for H-Leu-Gln-Lys-OH [H-LQK-OH] was 102; that for Ac-Ile-Asp-Arg-OH (also: MGO-modified, site not given here) [MGO-modified Ac-IDR-OH] was 81.8.
The same measure, in the same setting: the value for Ac-Ile-Asp-Arg-OH [Ac-IDR-OH] was 93.5; that for H-Thr-Asp-Lys-OH (also: MGO-modified, site not given here) [MGO-modified H-TDK-OH] was 87.5; that for H-Met-Asp-Arg-OH (also: MGO-modified, site not given here) [MGO-modified H-MDR-OH] was 74.5.
In the case of H-Val-Asn-Arg-OH [H-VNR-OH], the “Cathepsin B inhibition test” value came to 97.8.
On the same count and under the same terms, next, Ac-Val-Asn-Arg-OH [Ac-VNR-OH]: 99.8.
With Ac-Met-Asn-Arg-OH [Ac-MNR-OH], the “Cathepsin B inhibition test” value came out at 101.
The same measure, in the same setting: the value for Ac-Thr-Asp-Lys-OH [Ac-TDK-OH] was 101; that for H-Met-Asp-Lys-OH [H-MDK-OH] was 104; that for Ac-Met-Asn-Arg-OH (also: MGO-modified, site not given here) [MGO-modified Ac-MNR-OH] was 86.9.
On to Ac-Met-Asp-Lys-OH (also: MGO-modified, site not given here) [MGO-modified Ac-MDK-OH], for which the “Cathepsin B inhibition test” value is 99.4.
Same read-out and setting: the value for H-Met-Asn-Arg-OH (also: MGO-modified, site not given here) [MGO-modified H-MNR-OH] was 78.6.
Still for that read-out and setting: next, H-Ile-Asp-Arg-OH (also: MGO-modified, site not given here) [MGO-modified H-IDR-OH]: 85.6; H-Thr-Asn-Arg-OH [H-TNR-OH]: 103.
